Assay results from patent US20250019439A1 (Adimab, published 2025).

Key:
ADI-70326 = target: T1, ADI-70326; assay: SPR Carterra avidity, yeast anti-ID
T1 construct: anti-CD3 antibody made in CHO cells, captured by anti-human Fc
Method: (§1) Kinetic analysis was conducted at 25° C. in an HBSTE running buffer system (Carterra Cat #3630) using a Carterra LSA (Carterra USA, Salt Lake City, UT). The sample compartment was maintained at 20° C. for the duration of each experiment.
(§2) For antibody capture experiments, a goat anti-human Fc antibody (Jackson ImmunoResearch) was covalently coupled to an HC30M sensor chip surface via standard amine coupling (1:1 EDC:NHS) and then blocked with ethanolamine (1.0 M, pH 8.5). Covalent coupling steps were performed in 25 mM MES buffer (Carterra, Cat #3625) plus 0.05% Tween20. The anti-CD3 antibodies (100 nM in running buffer) were flowed over discrete regions of interest on the chip surface for 5 minutes. […] Dissociation of the anti-idiotype antibodies was monitored for 300s. Several blank buffer samples were injected over the entire chip surface at the start of each non-regenerative kinetic cycle. The preceding blank buffer injection was used for blank surface subtraction. At the end of each non-regenerative kinetic cycle, all surfaces were regenerated via two 30s injections of 10 mM glycine, pH 1.7.
(§3) For data processing and fitting, sensorgrams were double reference subtracted with a baseline drift correction of 4 RU. Sensorgrams were y-aligned and baseline corrected, filtered and cropped to include only the association and dissociation steps. Data was fitted to a 1:1 binding model using Carterra Kinetics Data Analysis software version 1.7.1.3055.

ADI-70327 = target: T2, ADI-70327; assay: SPR Carterra avidity, yeast anti-ID
T2 construct: anti-CD3 antibody made in CHO cells, captured by anti-human Fc
Method: as §1, §2, §3

ADI-70330 = target: T3, ADI-70330; assay: SPR Carterra avidity, yeast anti-ID
T3 construct: anti-CD3 antibody made in CHO cells, captured by anti-human Fc
Method: as §1, §2, §3

ADI-67450 = target: T4, ADI-67450; assay: SPR Carterra avidity, yeast anti-ID
T4 construct: anti-CD3 antibody made in CHO cells, captured by anti-human Fc
Method: as §1, §2, §3

ADI-67445 = target: T5, ADI-67445; assay: SPR Carterra avidity, yeast anti-ID
T5 construct: anti-CD3 antibody made in CHO cells, captured by anti-human Fc
Method: as §1, §2, §3

ADI-67447 = target: T6, ADI-67447; assay: SPR Carterra avidity, yeast anti-ID
T6 construct: anti-CD3 antibody made in CHO cells, captured by anti-human Fc
Method: as §1, §2, §3

ADI-26909 = target: T7, ADI-26909; assay: SPR Carterra avidity, yeast anti-ID
T7 construct: anti-CD3 antibody made in CHO cells, captured by anti-human Fc
Method: as §1, §2, §3

ADI-26913 IgG = target: T8, ADI-26913 IgG; assay: SPR Carterra avidity, yeast anti-ID
T8 construct: anti-CD3 IgG
Method: as §1, §2, §3

ADI-26916 IgG = target: T9, ADI-26916 IgG; assay: SPR Carterra avidity, yeast anti-ID
T9 construct: anti-CD3 IgG
Method: as §1, §2, §3

ADI-26912 = target: T10, ADI-26912; assay: SPR Carterra avidity, yeast anti-ID
T10 construct: anti-CD3 antibody made in CHO cells, captured by anti-human Fc
Method: as §1, §2, §3

ADI-26924 = target: T11, ADI-26924; assay: SPR Carterra avidity, yeast anti-ID
T11 construct: anti-CD3 antibody made in CHO cells, captured by anti-human Fc
Method: as §1, §2, §3

ADI-26915 = target: T12, ADI-26915; assay: SPR Carterra avidity, yeast anti-ID
T12 construct: anti-CD3 antibody made in CHO cells, captured by anti-human Fc
Method: as §1, §2, §3

ADI-48576 = target: T13, ADI-48576; assay: SPR Carterra avidity, yeast anti-ID
T13 construct: pH-dependent anti-CD3 antibody made in CHO cells
Method: as §1, §2, §3

ADI-48587 = target: T14, ADI-48587; assay: SPR Carterra avidity, yeast anti-ID
T14 construct: pH-dependent anti-CD3 antibody made in CHO cells
Method: as §1, §2, §3

ADI-48592 = target: T15, ADI-48592; assay: SPR Carterra avidity, yeast anti-ID
T15 construct: pH-dependent anti-CD3 antibody made in CHO cells
Method: as §1, §2, §3

ADI-48650 = target: T16, ADI-48650; assay: SPR Carterra avidity, yeast anti-ID
T16 construct: pH-dependent anti-CD3 antibody made in CHO cells
Method: as §1, §2, §3

ADI-74965 = target: T17, ADI-74965; assay: SPR Carterra avidity, yeast anti-ID
T17 construct: pH-dependent anti-CD3 antibody made in CHO cells
Method: as §1, §2, §3

ADI-74966 = target: T18, ADI-74966; assay: SPR Carterra avidity, yeast anti-ID
T18 construct: pH-dependent anti-CD3 antibody made in CHO cells
Method: as §1, §2, §3

ADI-74967 = target: T19, ADI-74967; assay: SPR Carterra avidity, yeast anti-ID
T19 construct: pH-dependent anti-CD3 antibody made in CHO cells
Method: as §1, §2, §3

ADI-74968 = target: T20, ADI-74968; assay: SPR Carterra avidity, yeast anti-ID
T20 construct: pH-dependent anti-CD3 antibody made in CHO cells
Method: as §1, §2, §3

ADI-76357 = target: T21, ADI-76357; assay: SPR Carterra avidity, yeast anti-ID
T21 construct: anti-CD3 antibody made in CHO cells, captured by anti-human Fc
Method: as §1, §2, §3

ADI-76358 = target: T22, ADI-76358; assay: SPR Carterra avidity, yeast anti-ID
T22 construct: anti-CD3 antibody made in CHO cells, captured by anti-human Fc
Method: as §1, §2, §3

ADI-76360 = target: T23, ADI-76360; assay: SPR Carterra avidity, yeast anti-ID
T23 construct: anti-CD3 antibody made in CHO cells, captured by anti-human Fc
Method: as §1, §2, §3

ADI-76362 = target: T24, ADI-76362; assay: SPR Carterra avidity, yeast anti-ID
T24 construct: anti-CD3 antibody made in CHO cells, captured by anti-human Fc
Method: as §1, §2, §3

CTL-62223 = target: T25, CTL-62223; assay: SPR Carterra avidity, yeast anti-ID
T25 construct: also called mosunetuzumab
Method: as §1, §2, §3

ADI-22523 Fab = target: T26, ADI-22523 Fab; assay: BLI; tip anti-ID IgG, solution ADI-22523 Fab
T26 construct: anti-CD3 Fab by papain digestion of the IgG
Method: (§4) ForteBio affinity measurements were performed generally as previously described (Estep et al., MAbs. 2013 5(2):270-8). Briefly, ForteBio affinity measurements were performed by loading antibody IgG or Fabs on-line onto AHC sensors. Sensors were equilibrated off-line in assay buffer for 30 minutes and then monitored on-line for 60 seconds for baseline establishment. For avid binding measurement, sensors with loaded antibodies were exposed to IgG or Fab solutions for 3 minutes, afterwards they were transferred to assay buffer for 3 minutes for off-rate measurement. Kinetics data were fit using a 1:1 binding model in the data analysis software provided by ForteBio to obtain equilibrium dissociation constant (KD=koff/kₒₙ) values. In each column, tip-immobilized antibodies are listed first and solution antibodies second.

ADI-22523 IgG = target: T27, ADI-22523 IgG; assay: BLI; tip anti-ID IgG, solution ADI-22523 IgG
T27 construct: anti-CD3 IgG
Method: as §4

ADI-50024 = target: T28, ADI-50024; assay: SPR Carterra avidity, yeast anti-ID, *koff limit
T28 construct: anti-CD3 antibody made in CHO cells, captured by anti-human Fc
Method: as §1, §2, §3

ADI-26906 IgG = target: T29, ADI-26906 IgG; assay: SPR Carterra avidity, yeast anti-ID, *koff limit
T29 construct: anti-CD3 IgG
Method: as §1, §2, §3

ADI-26919 = target: T30, ADI-26919; assay: SPR Carterra avidity, yeast anti-ID, *koff limit
T30 construct: anti-CD3 antibody made in CHO cells, captured by anti-human Fc
Method: as §1, §2, §3

ADI-26920 IgG = target: T31, ADI-26920 IgG; assay: SPR Carterra avidity, yeast anti-ID, *koff limit
T31 construct: anti-CD3 IgG
Method: as §1, §2, §3

ADI-26921 IgG = target: T32, ADI-26921 IgG; assay: SPR Carterra avidity, yeast anti-ID, *koff limit
T32 construct: anti-CD3 IgG
Method: as §1, §2, §3

ADI-26943 = target: T33, ADI-26943; assay: SPR Carterra avidity, yeast anti-ID, *koff limit
T33 construct: anti-CD3 antibody made in CHO cells, captured by anti-human Fc
Method: as §1, §2, §3

ADI-76359 = target: T34, ADI-76359; assay: SPR Carterra avidity, yeast anti-ID, *koff limit
T34 construct: anti-CD3 antibody made in CHO cells, captured by anti-human Fc
Method: as §1, §2, §3

ADI-76361 = target: T35, ADI-76361; assay: SPR Carterra avidity, yeast anti-ID, *koff limit
T35 construct: anti-CD3 antibody made in CHO cells, captured by anti-human Fc
Method: as §1, §2, §3

T35 sequence (VH, as listed by the source, chain 1 of 2): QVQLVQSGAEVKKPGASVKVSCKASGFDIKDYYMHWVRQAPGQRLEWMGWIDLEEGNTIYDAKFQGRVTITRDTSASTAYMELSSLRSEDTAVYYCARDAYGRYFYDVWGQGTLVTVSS
T35 sequence (VL, as listed by the source, chain 2 of 2): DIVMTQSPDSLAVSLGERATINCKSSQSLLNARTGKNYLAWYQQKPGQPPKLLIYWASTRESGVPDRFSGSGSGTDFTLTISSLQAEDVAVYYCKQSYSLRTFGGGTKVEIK
T12 sequence (VH, as listed by the source, chain 1 of 2): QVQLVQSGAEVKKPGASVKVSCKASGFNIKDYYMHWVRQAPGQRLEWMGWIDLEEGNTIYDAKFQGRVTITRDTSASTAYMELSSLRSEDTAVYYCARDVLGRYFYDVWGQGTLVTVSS
T12 sequence (VL, as listed by the source, chain 2 of 2): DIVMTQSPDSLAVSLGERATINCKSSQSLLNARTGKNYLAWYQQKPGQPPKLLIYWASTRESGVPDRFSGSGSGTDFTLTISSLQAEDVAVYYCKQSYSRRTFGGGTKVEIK
T3 sequence (VH, as listed by the source limits assumed, chain 1 of 2): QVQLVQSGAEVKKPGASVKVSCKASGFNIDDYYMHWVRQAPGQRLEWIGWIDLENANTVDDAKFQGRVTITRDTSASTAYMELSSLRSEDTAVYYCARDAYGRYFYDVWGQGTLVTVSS
T3 sequence (VL, as listed by the source limits assumed, chain 2 of 2): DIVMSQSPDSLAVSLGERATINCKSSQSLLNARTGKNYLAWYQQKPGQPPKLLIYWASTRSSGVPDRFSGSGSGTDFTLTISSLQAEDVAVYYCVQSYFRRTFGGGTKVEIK
T23 sequence (VH, as listed by the source, chain 1 of 2): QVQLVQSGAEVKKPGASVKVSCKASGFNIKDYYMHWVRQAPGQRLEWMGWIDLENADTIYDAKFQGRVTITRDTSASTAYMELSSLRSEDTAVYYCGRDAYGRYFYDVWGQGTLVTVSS
T29 sequence (VH, as listed by the source limits assumed, chain 1 of 2): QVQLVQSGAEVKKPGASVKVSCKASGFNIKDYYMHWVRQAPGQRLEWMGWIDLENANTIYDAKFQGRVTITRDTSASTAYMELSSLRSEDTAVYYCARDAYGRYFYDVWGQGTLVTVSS
T15 sequence (VH, as listed by the source, chain 1 of 2): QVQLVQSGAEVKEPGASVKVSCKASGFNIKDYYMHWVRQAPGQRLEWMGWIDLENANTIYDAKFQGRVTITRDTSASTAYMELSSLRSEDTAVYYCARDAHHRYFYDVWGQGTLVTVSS
T15 sequence (VL, as listed by the source, chain 2 of 2): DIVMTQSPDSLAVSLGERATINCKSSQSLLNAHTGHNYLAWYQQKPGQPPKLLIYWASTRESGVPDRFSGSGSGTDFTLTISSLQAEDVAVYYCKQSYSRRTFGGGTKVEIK
T1 sequence (VH, as listed by the source limits assumed, chain 1 of 2): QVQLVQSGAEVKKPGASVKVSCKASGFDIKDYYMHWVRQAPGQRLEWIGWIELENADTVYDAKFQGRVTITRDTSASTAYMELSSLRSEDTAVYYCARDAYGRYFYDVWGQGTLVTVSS
T11 sequence (VH, as listed by the source, chain 1 of 2): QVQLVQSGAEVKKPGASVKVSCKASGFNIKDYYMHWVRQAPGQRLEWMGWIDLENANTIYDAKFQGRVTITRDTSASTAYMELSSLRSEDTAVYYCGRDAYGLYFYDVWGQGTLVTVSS
T22 sequence (VH, as listed by the source, chain 1 of 2): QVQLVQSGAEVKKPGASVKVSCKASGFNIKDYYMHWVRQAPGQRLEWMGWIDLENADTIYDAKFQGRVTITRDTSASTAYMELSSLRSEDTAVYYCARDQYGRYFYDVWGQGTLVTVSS
T8 sequence (VH, as listed by the source limits assumed, chain 1 of 2): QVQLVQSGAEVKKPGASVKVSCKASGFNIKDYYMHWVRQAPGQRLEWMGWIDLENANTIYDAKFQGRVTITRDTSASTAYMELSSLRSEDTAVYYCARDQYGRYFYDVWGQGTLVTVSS
T5 sequence (VH, as listed by the source limits assumed, chain 1 of 2): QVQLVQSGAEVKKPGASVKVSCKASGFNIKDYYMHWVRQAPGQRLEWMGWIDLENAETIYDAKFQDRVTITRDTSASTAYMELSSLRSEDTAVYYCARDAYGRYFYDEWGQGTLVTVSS
T26 sequence (VH, as listed by the source limits assumed, chain 1 of 2): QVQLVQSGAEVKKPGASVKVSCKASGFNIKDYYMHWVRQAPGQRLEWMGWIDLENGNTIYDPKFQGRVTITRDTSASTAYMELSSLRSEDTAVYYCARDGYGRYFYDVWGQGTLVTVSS
T26 sequence (VL, as listed by the source limits assumed, chain 2 of 2): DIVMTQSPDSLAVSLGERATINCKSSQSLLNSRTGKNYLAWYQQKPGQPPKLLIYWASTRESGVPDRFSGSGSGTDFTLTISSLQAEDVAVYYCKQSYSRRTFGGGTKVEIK
T24 sequence (VH, as listed by the source, chain 1 of 2): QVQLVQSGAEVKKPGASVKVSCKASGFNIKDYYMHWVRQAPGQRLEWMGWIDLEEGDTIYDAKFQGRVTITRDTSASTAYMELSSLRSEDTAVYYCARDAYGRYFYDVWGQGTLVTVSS
T9 sequence (VH, as listed by the source, chain 1 of 2): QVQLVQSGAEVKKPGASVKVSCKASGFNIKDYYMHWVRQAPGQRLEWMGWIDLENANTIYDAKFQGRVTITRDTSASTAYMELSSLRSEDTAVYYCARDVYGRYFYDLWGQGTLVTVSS
T13 sequence (VH, as listed by the source, chain 1 of 2): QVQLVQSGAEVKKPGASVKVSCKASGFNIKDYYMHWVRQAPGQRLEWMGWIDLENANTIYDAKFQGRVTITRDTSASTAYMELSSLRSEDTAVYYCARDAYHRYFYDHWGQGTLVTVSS
T13 sequence (VL, as listed by the source, chain 2 of 2): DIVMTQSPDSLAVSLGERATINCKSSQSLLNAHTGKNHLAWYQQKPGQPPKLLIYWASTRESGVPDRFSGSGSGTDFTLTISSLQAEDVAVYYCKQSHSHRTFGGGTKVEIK
T4 sequence (VH, as listed by the source limits assumed, chain 1 of 2): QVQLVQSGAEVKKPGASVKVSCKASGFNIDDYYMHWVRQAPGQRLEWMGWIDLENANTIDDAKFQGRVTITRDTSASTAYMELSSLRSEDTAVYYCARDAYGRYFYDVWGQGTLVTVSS

B1: ADI-34135 (antibody, V domains shown)
VH: QVQLVQSGAEVKKPGSSVKVSCKASGGTFSSYAISWVRQAPGQGLEWMGGIIPIFGTANYAQKFQGRVTITADESTSTAYMELSSLRSEDTAVYYCARGAPNYYGSGGYDDGWFDPWGQGTLVTVSS
VL: EIVMTQSPGTLSLSPGERATLSCRASQSVSSSYLAWYQQKPGQAPRLLIYGASSRATGIPDRFSGSGSGTDFTLTISRLEPEDFAVYYCQQFGRYPTFGGGTKVEIK
notes: anti-ID IgG
ADI-70326
  Kd: 4.1 nM
ADI-70327
  binding result: binds
ADI-70330
  Kd: 0.47 nM
ADI-67450
  Kd: 0.63 nM
ADI-67445
  Kd: 0.34 nM
ADI-67447
  Kd: 0.26 nM
ADI-26909
  Kd: 0.1 nM
ADI-26913 IgG
  Kd: 0.1 nM
ADI-26916 IgG
  Kd: 0.14 nM
ADI-26912
  binding result: binds
ADI-26924
  Kd: 0.14 nM
ADI-26915
  Kd: 15 nM
ADI-48576
  Kd: 31 nM
ADI-48587
  Kd: 1.8 nM
ADI-48592
  Kd: 19 nM
ADI-48650
  binding result: binds
ADI-74965
  binding result: binds
ADI-74966
  Kd: 0.35 nM
ADI-74967
  Kd: 0.21 nM
ADI-74968
  Kd: 0.83 nM
ADI-76357
  Kd: 0.097 nM
ADI-76358
  Kd: 1.1 nM
ADI-76360
  Kd: 0.15 nM
ADI-76362
  Kd: 0.41 nM
CTL-62223
  Kd: 1.2 nM
ADI-22523 Fab
  Kd: 7.81 nM
ADI-22523 IgG
  Kd: 0.54 nM
ADI-50024
  Kd: 0.17 nM
ADI-26906 IgG
  Kd: 0.13 nM
ADI-26919
  Kd: 0.082 nM
ADI-26920 IgG
  Kd: 0.11 nM
ADI-26921 IgG
  Kd: 0.073 nM
ADI-26943
  Kd: 0.099 nM
ADI-76359
  Kd: 0.053 nM
ADI-76361
  Kd: 0.044 nM
